# Results: PMC6614801, “Structural basis for the function of SuhB as a transcription factor in ribosomal RNA synthesis” (Nucleic Acids Research, 2019)
# Where a chain is given by its changes, count along the chain named.
# T1: SuhB^K108A (E. coli, UniProt P0ADG4 1-267, K108A)
# T1 sequence (looked up): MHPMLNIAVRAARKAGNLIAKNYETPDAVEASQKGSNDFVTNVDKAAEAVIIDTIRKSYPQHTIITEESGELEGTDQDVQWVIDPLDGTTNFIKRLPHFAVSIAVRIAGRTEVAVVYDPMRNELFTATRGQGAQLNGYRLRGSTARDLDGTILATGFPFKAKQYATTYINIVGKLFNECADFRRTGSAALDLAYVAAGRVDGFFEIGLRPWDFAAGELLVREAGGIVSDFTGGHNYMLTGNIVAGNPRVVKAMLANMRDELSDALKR
# B1: SuhB (inositol mono-phosphatase SuhB), wild type (natural protein, E. coli, UniProt P0ADG4 1-267, looked up)
# chain: T1 sequence (looked up) with A108K
# notes: Inositol mono-phosphatase SuhB of E. coli, PCR-amplified from E. coli (DH5α) genomic DNA, full length; Dimer by SEC-MALS and in both crystal structures; also called wt SuhB; SuhB^II; source: E. coli BL21(DE3)pLysS, purified (Ni-NTA, TEV digestion, SEC)
# B2: SuhB^KL251/254AA (natural protein, E. coli, UniProt P0ADG4 1-267, looked up)
# chain: T1 sequence (looked up) with A108K, K251A, L254A
# notes: also called KL/AA
# B3: N-terminally His6-tagged NusA^AR2 (domain or fragment, E. coli, UniProt P0AFF6 427-495, looked up)
# chain: DNKPADDLLNLEGVDRDLAFKLAARGVCTLEDLAEQGIDDLADIEGLTDEKAGALIMAARNICWFGDEA
# notes: C-terminal acidic repeat 2 (AR2) domain of E. coli NusA, residues 427–495; Same construct as m3, with the His6 tag kept for capture on the NTA chip in SPR; also called wt AR2; source: recombinant (pETM-11), purified via the same protocol as full-length NusA (19); not shown: His6, N-terminal, kept
# Experiments:
# Settings in all cases: both partners purified
# NusA, full length = target: T2, NusA, full length (E. coli, UniProt P0AFF6 1-495); assay: SEC; analytical SEC of mixtures of proteins only; Superdex 200 Increase 3.2/300; 20 μM largest component, 25 μM all smaller components; 20 mM HEPES–NaOH pH 7.5, 50 mM NaCl, 1 mM DTT; incubated at room temperature for 15 min; fractions on SDS-PAGE
# T2 construct: Transcription factor NusA of E. coli, full length; also called NusA^FL; N-utilization substance A; source: recombinant, produced and purified as described previously (18,19)
# [1] = target: B1; assay: SPR; Biacore, Sensor Chip NTA, 20°C; N-terminally His6-tagged NusA^AR2 immobilised; single cycle kinetics with SuhB variants at 25, 50, 100, 150 and 200 nM; 20 mM HEPES–NaOH pH 7.5, 50 mM NaCl, 1 mM DTT
# SuhB^K108A = target: T1, SuhB^K108A; assay: as above
binder,measurement,setting,value
B1,binding result,"NusA, full length",binds
B2,binding result,"NusA, full length",binds
B3,Kd,[1],94 nM
same,Kd,SuhB^K108A,435 nM
